The target in assay [1] is T1, platelet integrin receptor GPIIb/IIIa (alpha IIb/beta 3), activated state, on ADP-activated human platelets (human, UniProt P08514 32-1039; P05106 27-788).
T1 construct: whole, on cells; The assays were on whole platelets
Description: FACS, inhibition of fibrinogen binding to activated human platelets. A general note: Flow cytometry measures light scatter and fluorescence of single cells or particles in a stream.

The target of assay [2] is platelet integrin receptor GPIIb/IIIa (alpha IIb/beta 3), activated state, on ADP-activated human platelets (human) (UniProt P08514). Description: flow cytometry, ADP-activated platelets in diluted human whole blood, scFv at 3.9×10^-2 µg/mL, background of secondary reagent subtracted.
The target is the same in assay [3]. Nature of the assay: flow cytometry, ADP-activated platelets in diluted human whole blood, scFv at 2.0×10^-3 µg/mL as printed, background of secondary reagent subtracted.
The target in assay [4] is platelet integrin receptor GPIIb/IIIa (alpha IIb/beta 3), non-activated state, on non-activated human platelets (human) (UniProt P08514). Description: flow cytometry, non-activated platelets in diluted human whole blood, scFv at 2.0×10^-3 µg/mL as printed, background of secondary reagent subtracted.
For assay [5], the target named is platelet integrin receptor GPIIb/IIIa (alpha IIb/beta 3), activated state, on ADP-activated human platelets (human) (UniProt P08514). Description: flow cytometry, ADP-activated platelets in diluted human whole blood, scFv at 9.8×10^-3 µg/mL, background of secondary reagent subtracted.
For assay [6] the target is unchanged. Description: flow cytometry, inhibition of fibrinogen binding to ADP-activated platelets in whole blood.
The target is the same in assay [7]. Nature of the assay: flow cytometry, ADP-activated platelets in diluted human whole blood, scFv at 0.1 µg/mL, background of secondary reagent subtracted.
Assay [8] has as its target platelet integrin receptor GPIIb/IIIa (alpha IIb/beta 3), non-activated state, on non-activated human platelets (human) (UniProt P08514). Nature of the assay: flow cytometry, non-activated platelets in diluted human whole blood, scFv at 4.9×10^-3 µg/mL, background of secondary reagent subtracted.
In assay [9] the target is platelet integrin receptor GPIIb/IIIa (alpha IIb/beta 3), activated state, on ADP-activated human platelets (human) (UniProt P08514). Nature of the assay: flow cytometry, inhibition of fibrinogen binding to ADP-activated platelets in whole blood, 4-parameter logistic fit.
Assay [10] has as its target platelet integrin receptor GPIIb/IIIa (alpha IIb/beta 3), non-activated state, on non-activated human platelets (human) (UniProt P08514). Description: flow cytometry, non-activated platelets in diluted human whole blood, scFv at 3.9×10^-2 µg/mL, background of secondary reagent subtracted.
The target in assay [11] is platelet integrin receptor GPIIb/IIIa (alpha IIb/beta 3), activated state, on ADP-activated human platelets (human) (UniProt P08514). Description: flow cytometry, ratio against non-activated platelets at the same scFv concentration (FIG. 23 B).
The target of assay [12] is platelet integrin receptor GPIIb/IIIa (alpha IIb/beta 3), non-activated state, on non-activated human platelets (human) (UniProt P08514). Description: flow cytometry, non-activated platelets in diluted human whole blood, scFv at 0.1 µg/mL, background of secondary reagent subtracted.
The target of assay [13] is platelet integrin receptor GPIIb/IIIa (alpha IIb/beta 3), activated state, on ADP-activated human platelets (human) (UniProt P08514). Description: flow cytometry, ADP-activated platelets in diluted human whole blood, scFv at 4.9×10^-3 µg/mL, background of secondary reagent subtracted.
For assay [14], the target named is platelet integrin receptor GPIIb/IIIa (alpha IIb/beta 3), non-activated state, on non-activated human platelets (human) (UniProt P08514). Nature of the assay: flow cytometry, non-activated platelets in diluted human whole blood, scFv at 9.8×10^-3 µg/mL, background of secondary reagent subtracted.

Where “and” joins values, the source holds several entries; their conditions need not be identical. Equal entries are not always repeated.

In general, IC50 refers to the concentration needed to halve the response being measured. As usually defined, the EC50 is the concentration needed to bring the measured effect to its halfway point.

B1: MB9 scFv (scFv)
scFv: MAEVQLVQSGAEVNKPGASVKVSCKASGYTFTGYYMHWVRQAPGQGLEWMGWINPNSGGTNYAQKFQGWVTMTRDTSISTAYMELSRLRSDDTAVYYCARGRALYNRNDRSPNWFDPWGQGTLVTVSSGSASAPTLKLEEGEFSEARVQAVLTQPPSVSVAPGQTARITCGGNNIGSKSVQWYQQKPGQAPVLVVYDDSDRPSGIPERFSGSNSGNMATLTISRVEAGDEADYYCQVWDSSSDHVVFGGGTKLTVLGQPKAAPSVTLFPPSAAAGSHHHHHH
notes: Human scFv from the natural IgM phage library, 31 kDa, detected through a His tag; also called clone MB9; MA2
Turning to B1, in [1], the IC50 was 1.1 µg/mL and 35 nM.

B2: human anti-gpIIb/IIIa single chain antibody (scFv) SCE5 (scFv, V domains shown, not shown: small tags and cut ends)
VH: QVQLQESGGGLVQPGGSLRLSCAASGFMFSRYAMSWVRQAPGKGPEWVSGISGSGGSTYYADSVKGRFTVSRDNSKNTLYLQMNSLRAEDTAVYYCARGATYTSRSDVPDQTSFDYWGQGTLVTVSS
VL: SSELTQDPAVSVALGQTVRITCQGDSLRNFYASWYQQKPGQAPTLVIYGLSKRPSGIPDRFSASSSGNTASLTITGAQAEDEADYYCLLYYGGGQQGVFGGGTKLTVL
modifications: linker and His tag
For the molecule B2, the fluorescence signal value in assay [2] came out at 2.84; in assay [3] it was 1.33; in assay [4], 0.027; in [5], 0.612; in assay [7], 4.15; in assay [8] it was 0.013. The fluorescence signal value in assay [10] worked out at 0.05; in assay [12] it was 0.16; in assay [13] it was 0.265; in assay [14], 0.015. Moreover, the concentration at which the inhibitory effect starts in assay [6] is 0.1 to 0.2 µg/mL. Besides, in [6], the concentration of maximal inhibitory effect turned out to be 10 µg/mL. The molecule further gave an EC50 in assay [9] of 0.94 µg/mL. In assay [11], the fluorescence on activated platelets divided by fluorescence on non-activated platelets amounted to 10 times.

B3: ReoPro (abciximab, Centocor/Eli Lily) (Fab, INN chains, looked up, V domains shown)
VH: EVQLQQSGTVLARPGASVKMSCEASGYTFTNYWMHWVKQRPGQGLEWIGAIYPGNSDTSYIQKFKGKAKLTAVTSTTSVYMELSSLTNEDSAVYYCTLYDGYYVFAYWGQGTLVTVSA
VL: EIVLTQSPVTLSVTPGDSVSLSCRASRDISNNLHWFQQTSHESPRLLIKYASQSMSGIPSRFSGSGSGTDFTLSINSVETEDFGMYFCQQTNSWPYTFGGGTKLEIK
modifications: Fab
Take B3: the EC50 in assay [6] came out at 0.16 µg/mL.

The record behind these values is patent publication US20110165175A1 (AFFIMED THERAPEUTICS, published 2011).
